± gives the uncertainty stated by the source.
B1: GA-binding protein alpha chain, residues 172 to 250; numbered along this chain, Q06546 (parent)
chain: GYRKEQERLGIPYDPIQWSTDQVLHWVVWVMKEFSMTDIDLTTLNISGRELCSLNQEDFFQRVPRGEILWSHLELLRKY

Variants of: B1
Test: abundance fitness (aPCA) (normalised: wild type 0, dead -1); higher = more abundant; growth selection in yeast, the domain comes from the species named
Details: Homo sapiens

Abundance fitness: each site, then its substitutions
W18: G -0.779 ± 0.053, A -0.862 ± 0.11, S -0.835 ± 0.072, I -0.915 ± 0.24, K -0.864 ± 0.15, Y -0.669 ± 0.14, L -0.974 ± 0.087, V -0.927 ± 0.081, M -0.957 ± 0.18, R -0.905 ± 0.07, H -1 ± 0.46, T -0.98 ± 0.16, Q -0.944 ± 0.13, F -0.901 ± 0.28, D -1.05 ± 0.24, N -0.134 ± 0.18
Q17: N -0.062 ± 0.1, V -0.121 ± 0.043, I -0.269 ± 0.07, M -0.134 ± 0.069, A -0.056 ± 0.043, C -0.127 ± 0.06, P -0.942 ± 0.14, H 0.085 ± 0.082, E 0.049 ± 0.07, G -0.099 ± 0.04, W -0.08 ± 0.048, K -0.143 ± 0.059, L -0.01 ± 0.034, T -0.029 ± 0.098, F -0.28 ± 0.1, D 0.017 ± 0.16, R -0.009 ± 0.036
Q22: S -0.646 ± 0.052, K -0.787 ± 0.2, I -0.899 ± 0.18, E 0 ± 0.027, Y -0.763 ± 0.19, F -0.792 ± 0.16, N -0.039 ± 0.098, G -0.88 ± 0.063, W -1 ± 0.18, P -0.991 ± 0.12, D -0.072 ± 0.11, A -0.295 ± 0.052, V -0.992 ± 0.097, T -0.875 ± 0.091, R -0.998 ± 0.094, C -0.543 ± 0.12, M -0.219 ± 0.06, H -0.052 ± 0.085
V23: T -0.058 ± 0.037, F -0.89 ± 0.16, C -0.53 ± 0.08, G -0.982 ± 0.08, R -0.724 ± 0.066, M -0.844 ± 0.15, H -0.966 ± 0.2, K -0.791 ± 0.14, Y -0.804 ± 0.22, S -0.839 ± 0.067, E -0.951 ± 0.18, L -0.746 ± 0.058, Q -0.9 ± 0.13, P -0.909 ± 0.091, I -0.794 ± 0.14, A -0.575 ± 0.06, D -0.873 ± 0.062, W -1.04 ± 0.16
D21: K -0.029 ± 0.084, M -0.134 ± 0.09, S -0.029 ± 0.036, L -0.414 ± 0.042, I -0.36 ± 0.068, P -0.089 ± 0.03, T -0.114 ± 0.055, Y -0.27 ± 0.084, H -0.049 ± 0.054, W -0.185 ± 0.04, R -0.096 ± 0.032, A -0.031 ± 0.044, V -0.172 ± 0.035, N -0.044 ± 0.073, F -0.391 ± 0.094, G -0.002 ± 0.031
I16: M 0.032 ± 0.26, N -0.082 ± 0.07, T -0.065 ± 0.069, A -0.021 ± 0.041, Q 0.036 ± 0.074, R -0.013 ± 0.03, K -0.025 ± 0.085, E 0.101 ± 0.079, H 0.099 ± 0.073, V -0.014 ± 0.034, C 0.036 ± 0.054, D -0.116 ± 0.086, W -0.016 ± 0.056, L -0.012 ± 0.036, Y 0.037 ± 0.09, P -0.458 ± 0.059, F -0.027 ± 0.064
P15: T -1.07 ± 0.23, A -0.641 ± 0.067, V -0.243 ± 0.036, R -0.56 ± 0.04, E -1 ± 0.15, Q -0.878 ± 0.19, L -0.72 ± 0.058, H -0.813 ± 0.23, W -1.09 ± 0.15, C -0.742 ± 0.08, G -0.888 ± 0.073, F -0.717 ± 0.094, N -0.606 ± 0.11, S -0.765 ± 0.066, Y -0.901 ± 0.28, I -0.356 ± 0.066, M -0.635 ± 0.11
L24: C 0.003 ± 0.046, G -0.109 ± 0.03, D -0.171 ± 0.11, F -0.119 ± 0.072, A -0.083 ± 0.044, E -0.088 ± 0.055
D14: Y -0.57 ± 0.11, V -0.856 ± 0.071, S -0.205 ± 0.036, W -0.651 ± 0.055, T -0.868 ± 0.24
S19: C -0.487 ± 0.065, Y -0.65 ± 0.14, D -0.048 ± 0.072, G -0.34 ± 0.035, H -0.096 ± 0.17, E -0.311 ± 0.057, V -0.996 ± 0.1, F -0.849 ± 0.12, A -0.664 ± 0.062, W -0.927 ± 0.11, L -0.864 ± 0.094, M -0.836 ± 0.14, R -0.14 ± 0.029, K -0.281 ± 0.077, T 0.05 ± 0.073, P -0.82 ± 0.1, N -0.053 ± 0.11, Q -0.225 ± 0.053
T20: N 0.103 ± 0.099, I -0.101 ± 0.12, G -0.069 ± 0.032, F -0.716 ± 0.19, A 0.024 ± 0.043, C -0.118 ± 0.069, K 0.043 ± 0.069, M -0.15 ± 0.057, R -0.022 ± 0.032, Y -0.529 ± 0.11, E 0.039 ± 0.053, Q -0.043 ± 0.063, V -0.03 ± 0.039, W -0.516 ± 0.061, H -0.047 ± 0.11, L -0.318 ± 0.043, P -0.013 ± 0.053, S 0.041 ± 0.036, D -0.101 ± 0.086

Source: the Human Domainome abundance scans (Beltran et al. 2025)
